Measured values as given in article PMC11965559 (Nature Communications, 2024).
Residue numbers refer to the chain shown, from its start. Like-named read-outs stand apart in the source and are kept apart here. One block for each binder: values may come before it.

Assays:
[1] = target: T1, SmD1 (1-109);SmD2;SmF;SmE;SmG;SmD3 (1-88);SmB (1-105) (Saccharomyces cerevisiae;Saccharomyces …, UniProt Q02260;Q06217;P54999;Q12330;P40204;P43321;P40018 …, ||||||); assay: EMSA
[2] = target: T2, SmD1 (1-109);SmD2;SmF;SmE;SmG (Saccharomyces cerevisiae;Saccharomyces …, UniProt Q02260;Q06217;P54999;Q12330;P40204 1-109;1-110;1-86;1-94;1-77, ||||); assay: EMSA
[3] = target: T3, SmD1 (1-109);SmD2;SmF;SmE;SmG;Brr1 (Saccharomyces cerevisiae;Saccharomyces …, UniProt Q02260;Q06217;P54999;Q12330;P40204;Q99177 1-109;1-110;1-86;1-94;1-77;1-341, |||||); assay: EMSA
[4] = target: T3, SmD1 (1-109);SmD2;SmF;SmE;SmG;Brr1; assay: EMSA; remark: listed apart in the source
[5] = target: T1, SmD1 (1-109);SmD2;SmF;SmE;SmG;SmD3 …; assay: EMSA; remark: listed apart in the source
[6] = target: SmD1 (1-109);SmD2;SmF;SmE;SmG;Brr1;SmD3 (1-88);SmB (1-105) (Saccharomyces cerevisiae;Saccharomyces …, UniProt Q02260;Q06217;P54999;Q12330;P40204;Q99177;P43321;P40018 …, |||||||); assay: EMSA
[7] = target: T4, Brr1, full length, HT-tag removed (S. cerevisiae, UniProt Q99177 1-341); assay: SEC
T4 sequence (looked up): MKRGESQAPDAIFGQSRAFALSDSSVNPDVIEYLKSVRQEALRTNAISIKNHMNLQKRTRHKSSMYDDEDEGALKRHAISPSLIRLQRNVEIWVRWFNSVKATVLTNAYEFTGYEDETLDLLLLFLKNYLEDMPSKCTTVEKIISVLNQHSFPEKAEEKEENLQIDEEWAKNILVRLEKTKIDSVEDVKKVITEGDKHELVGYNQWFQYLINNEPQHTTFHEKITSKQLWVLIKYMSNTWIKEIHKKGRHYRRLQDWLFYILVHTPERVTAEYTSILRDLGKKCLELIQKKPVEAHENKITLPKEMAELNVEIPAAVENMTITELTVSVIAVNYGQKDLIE

[8] = target: T5, HT-Brr1, full-length Brr1 with N-terminal HT-tag (S. cerevisiae, UniProt Q99177 1-341); assay: pull-down
T5 sequence (looked up): T4 sequence (looked up)

[9] = target: T6, Brr1Δ(122-197) with N-terminal HT-tag (S. cerevisiae, UniProt Q99177 1-341, Δ(122-197)); assay: pull-down
T6 sequence (looked up): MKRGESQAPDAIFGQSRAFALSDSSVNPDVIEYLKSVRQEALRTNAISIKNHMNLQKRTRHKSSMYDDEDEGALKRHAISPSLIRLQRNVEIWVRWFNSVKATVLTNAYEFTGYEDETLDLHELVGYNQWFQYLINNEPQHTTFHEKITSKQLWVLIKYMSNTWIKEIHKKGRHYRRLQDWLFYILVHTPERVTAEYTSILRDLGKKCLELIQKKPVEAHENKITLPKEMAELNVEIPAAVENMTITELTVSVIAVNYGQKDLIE

[10] = target: T7, D1/D2/F/E/G pentamer (5Sm) (S. cerevisiae, UniProt Q02260 1-109; Q06217 1-110; P54999 1-86; Q12330 1-94; P40204 1-77); assay: pull-down
T7 sequence (looked up) 1: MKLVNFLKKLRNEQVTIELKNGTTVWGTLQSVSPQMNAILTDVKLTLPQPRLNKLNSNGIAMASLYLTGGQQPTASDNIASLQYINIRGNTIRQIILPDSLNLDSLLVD
T7 sequence (looked up) 2: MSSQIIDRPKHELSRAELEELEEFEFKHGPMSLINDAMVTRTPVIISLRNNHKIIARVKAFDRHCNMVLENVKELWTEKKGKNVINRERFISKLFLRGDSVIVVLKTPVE
T7 sequence (looked up) 3: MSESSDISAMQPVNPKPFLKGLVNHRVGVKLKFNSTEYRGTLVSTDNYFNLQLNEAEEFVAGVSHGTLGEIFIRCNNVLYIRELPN
T7 sequence (looked up) 4: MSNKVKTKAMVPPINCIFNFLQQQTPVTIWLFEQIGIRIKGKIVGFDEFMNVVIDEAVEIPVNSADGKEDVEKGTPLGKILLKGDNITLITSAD
T7 sequence (looked up) 5: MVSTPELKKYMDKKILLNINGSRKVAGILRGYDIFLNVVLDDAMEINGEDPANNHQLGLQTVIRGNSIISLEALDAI

[11] = target: T1, SmD1 (1-109);SmD2;SmF;SmE;SmG;SmD3 …; assay: EMSA; remark: listed apart in the source
[12] = target: T1, SmD1 (1-109);SmD2;SmF;SmE;SmG;SmD3 …; assay: EMSA; remark: listed apart in the source
[13] = target: T2, SmD1 (1-109);SmD2;SmF;SmE;SmG; assay: EMSA; remark: listed apart in the source

B1: Umini-snRNA (structured_RNA)
RNA: GGGAAGUGUUACAGCUCUUUUAGAAUUUUUGGAGUAGGCUUUCUGGCUUUUCACCGGAAAGCCCCU
binding result [1]: binds
binding result [2]: binds
binding result [3]: binds

B2: Umini-ΔSm-snRNA (structured_RNA)
RNA: B1 RNA with U26C, U27C, U28C, U29C, U30C
binding result [4]: no binding
binding result [2]: no binding
binding result [5]: no binding
binding result [6]: no binding

binding result [7]: binds
binding result [8]: binds
binding result [9]: binds
B3: F/E/G (SmF/SmE/SmG subcomplex, HT-tags removed) (complex, S. cerevisiae)
chain 1: T7 sequence (looked up) 3
chain 2: T7 sequence (looked up) 4
chain 3: T7 sequence (looked up) 5

binding result [10]: binds
B4: HT-Lot5ΔC, Lot5 (residues 1–227) with N-terminal HT-tag (domain or fragment, S. cerevisiae, UniProt P34234 1-227, looked up)
chain: MMKKKPKCQIARTKPSVENVIPYNQFKKTQPRFNGNFSALNNEEYIILFGGGRDLILGSLTPCSSSHLSNQANPQDTSEYGTDLFILNSCIIIWFNGLGYGLEIPYSSVLYHASRRLPDGREGLQLEILLTLERDEVLDMLYQSLAPQACEFDGEEAHAFTVRSVELTIRPKYSIYDRHYNNEIETLFTFENFGVNRGDDLVNNCNEALAVCMDLHGEDVQDQDQEQ

B5: U4-snRNA (structured_RNA)
RNA: GGAUCCUUAUGCACGGGAAAUACGCAUAUCAGUGAGGAUUCGUCCGAGAUUGUGUUUUUGCUGGUUGAAAUUUAAUUAUAAACCAGACCGUCUCCUCAUGGUCAAUUCGGUGUUCGCUUUUGAAUACUUCAAGACUAUGUAAAUUUUUGGAAUACCUUU
binding result [4]: binds
binding result [11]: binds

B6: Umini-3'ss (ssRNA)
RNA: GGGAAGUGUUACAGCUCUUUUAGAAUUUUUGGAGUAGGCUUUCUGGCUUUUCAGGCCUUUCGGGGA
binding result [4]: binds
binding result [12]: binds
binding result [13]: binds
